Test results reported in the nanobody polyreactivity screen of Harvey et al. (2022).

Assay: yeast display, Sf9 membrane polyspecificity reagent, FACS + sequencing; frameworks hold sequencing errors
In short: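 Galactose induction of a Saccharomyces cerevisiae BJ5465 synthetic nanobody display library ran 36–48 hours. The cells were then stained for 1 hour at 4 °C with 10% biotinylated, detergent-solubilized Sf9 membrane reagent, pulled down on streptavidin microbeads and FACS-sorted into low and high (top ~1%) gates on expression and reagent-binding fluorescence. Labels for polyreactivity follow the gate of origin.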

Sequence | polyreactivity (PSR sort gate)
QVQLVESGGGLVQAGGSLRLSCAASGSTFVGNAMGWYRQAPGKERELVAAISSDSSTYYADSVKGRFTISRDNAKNTVYLQMNSLKPEDTAVYYCAEYYPGYGYGYWGQGTQVTVSS | low polyreactivity
QVQLVESGGGLVQAGGSLRLSCAASGSIFPYNAMGWYRQAPGKERELVATISSGGSTNYADSVKGRFTISRDNAKNTVYLQMKSLKPADTAVYYCAADVIVFFSAPNYWGDIEYGYWGQGTQVTVSS | low polyreactivity
QVQLVESGGGLVQAGGSLRLSCAASGRIFRGYAMGWYRQAPGKERELVAAISGSGGSTYYADSVKGRFTISRDNAKNTVYLQMMSLKPEDTAVYYCAADQQSTGDWAGDYWGQGTQVTVSS | low polyreactivity
QVQLVESGGGLDQARGSLRLSCAASGTTIGGNAMGWYRQAPGKERELVAAIDSGGSTYADSVKGRFTISRDNAKKTVYVQMNSLKPEDTAVYYCAAVWEFVHFWSFDYWGQGTQVTVSS | low polyreactivity
QVQLVESGGGLVQAGGSLRLSCAASGITFGDYAMVWYRQAPGKERELVAAITSGGSTYYADSVKGRCTISRDNAKNTVYLQMNILKPEDTAVYYCNRQYNQWIHYYYRMDYWGQGTQVTVSS | high polyreactivity
QVQLVESGGGLVQAGGSLRLSCAASGSNFWRKAMGWYRQAPGKERELVAAITCGGSTYYADSVKGRCTISRDNAKNTVYLQMNSLKTEVTAVYYCAAGYSYRYGYWGQGTQVTVSS | low polyreactivity
QVQLVESGGGLVQAGGSLRLSCAASGITFVRNTMGWYRQAPGKERELVAAIDSGGNTNADSVKGRFTISRDNAKNTVYLQMNSLTPEDTAVYYCAVDGGEFSSYGYWGQGTQVTVSW | low polyreactivity
QVQLVESGGGLVQAGGSLRLSCAASGFTFEENDMGWYRQAPGKETELVAAINWSGGNTYYADSVKGRFTISRDNAKNTVYLQMNSLKPEDTAVYYCAADSPRYYYWVGPYYGYDYWGQGTQVTVSS | high polyreactivity
QVQLVESGGGLVQAGGSLRLSCAASGITFRLYAMGWYRPAPGKERELVAAISKRGGSTYYADSVKGRFTISRDNAKNTVYLQMNSLKPEDTAVYYCAADSGWEHRYDYWGQGTQVTVSS | high polyreactivity
QVQLVESGGGLVQAGGSLRLSCAASGSISRLYAMRWYRQAPGKERELVARITSSGGRTYYADSVKGRFTISRDNAKNTVYLQMHSLKPEDTAVYYCAARGYVSVWRPYHWFVAGDYWGQGTQVTVSS | high polyreactivity
QVQLVESGGGLVQAGGSLRLSCAASGFTFSSYAMGWYRQAPGKERELVAAISGSGDRTRYADSVKGRFTISRDNAKNTVYLQMNSLKPEDTAVYYCAAKSPGSQTAMDYWGQGTQVTVSS | high polyreactivity
QVQLVESGGGLVQAGGSLRLSCAASGRIFSDYAMGWYRQAPGKERELVATITSGDSTNYEDSVKGRFTISRDNAKNTVYLQMNSLKPVDTAVYYCIADRYADYDYWGQGTQVTVSS | low polyreactivity
QVQLVESGGGLVQAGGSLRLSCAASGITFDQNAMGWYRQAPGKEREFVAAISVSGGRTYYADSVKGRFTISRDNAKNTVYLQMNSLKPEDTAVYYCAAYGGTRYYYSYYYWGQGTQVTVSS | high polyreactivity
QVQLVESGGGLVQAGGSLRLSCAASGFIFASNAMGWYRPAPGKERELVAAISTNGGSTNYADSVKGRFTISRDNAKKTVYLQMNSLKPEDTAVYYCNTDFPTQYGTRIGDDYWGQGTQVTVSS | low polyreactivity
QVQLVESGGGLVQAGGSLRLSCAASGSTFYPYAMGWYRQAPGKERELVAGISWSGGSTYYADSVKGRFTISRDNAKNTVYLQMNSLKPEDTAVYSCAVDVYWSVIYDYWGQGTQVTVSS | low polyreactivity
QVQLVESGGGLVQAGGSLRLSCDASGRIYEVYAMGWYRRAPGKERELVAAISADGTITSYADSVKGRFTISRDNAKNNVYLQMNSLKPEDTAVYYCNADPRFRGDYWGQGTQVTVSS | high polyreactivity
QVQLVESGGGLVQAGGSLRLSCPDSGRIFFLYAMGWYRQAPGKERELVAAITKSGGSTYADSVKGRFTISRDNAKNTVFLQMNSLIPEDTAVYYCAADLFTDLYDSWGQGTQVTVSS | low polyreactivity
QVQLVESGGGLVQAGGSLRLSCAASGSTFSDNAMGWYRQAPGKERELVAAITSGGSTYYADSVKGRFTISRDNAKNTVYLQMNSLKPEDTAVYYCATGGVTFGSVVRGVDGDYWGQGTQVTVSS | low polyreactivity
QVQLVESAGGLVQAGGSLRLSCAASGSTLHYYAMGRYRQAPGKERELVAGISGSGGSTYYADSVKGRFTISRDNAKNTVYLQMNSLKPEDTAVYYCAADAYVSSQPMDYWGQGTQVTVSS | high polyreactivity
QVQLVESGGGLVQPGGSLRLSCAASGIIFRYYAMGWYRQAPGKERELVAAITWSGGSTYYADSVKGRFTISRDNAKNTVYLQMNRLKPEDTAVFDCAADWWSVRGYAVDYWGQGTQVTVSS | high polyreactivity
QVQLVESGGGLVQAGGSLRLSCAASGRTFWRYAMGWYRQAPGKERELVARISSGGSTYYADSVKGRFTISRDNAKNTVYLQINSLKPEDTAVYYCAVLSRHRRVPWYRYNYWGQGTQVTVSS | low polyreactivity
QVQLVESGGGLVQAGGSLRLSCAASGSTFSYYRMGWYRQATGTERELVASIDYSGESTYYADSVKGRFTISLDNAKNTVYLQMNSLNPEDTAVYYCAADDYPWNRYEYWGQGTQVTVSS | low polyreactivity

Sequence | polyreactivity (PSR sort gate)
QVQLVESGGGLVQAGGSLRLSCAASGSIFYRNVMGWYRPAPGKERELVAVITSDGSTNYADSVKGRFTISRDNAKNTVYLQMNSLKPEVTAVYYCNAHYAFYGPGYPIYWIYEYWGQGTQVTVSS | low polyreactivity
QVQLVESGGGLVQAGGSLRLSCAASGITSGTYAMGRYRQAPGKERELVAGISRSGTRTYYADSVKGRFTISRDNAKNTVYLQMNSLKPEDTEVYYCNTYVGRRPGYGYWGQGTQVTVSS | high polyreactivity
QVQLVESGGGLVQAGGSLRLTCAASGYIFSTYAMGSYRQAPGKERELVASISENGGSTYYADSVKGRFTISRDNAKNTVYLQMNSLKPEDTAVDYCNADAYVDVDDGDYWGEGTQVTVSS | low polyreactivity
QVQLVESGGGLVQAGGSLRLSCAASGRIFYRYAMGWYRQAPGKERELVASITRSGITHYADSVKGRFTISRDNAKNTVYLQMNSLKPEDTAVYYCNARRGSPAPYDYWGQGTQVTVSS | high polyreactivity
QVHLVESGGGLVQAGGSLRLSCAASGRIFKKYAMGWYRQAPGKESELVATISSGGSTYYADSVKGRFTISRDNAKNTVYLQMNSLNPEDTAVYYCARREYVRRDYFVTTYDYWGQGTQVTVSS | low polyreactivity
QVQLVESGGGLVQAGGSLRLSCAASGRIFYYYAMGWYREAPGKEREFVARNRSSGGSTYADSVKGRFTISRDNAKNTVYLQMNSLKPEDTAVYYCARDGYTAVEYDYWGQGTQVTVSS | low polyreactivity
QVQLVESGGGLVQAGGSLRLSCAASGSIFKSYAMGWYRKAPGKERELVAAITWRSGRTYYADSLKGRFTISRDNAKNTVYLQMNSLKPEDTAVYYCAAELVSVRYLYALHDRDYWGKGTQVTVSS | low polyreactivity
QDQLVESGGGLVQAGGSLRLSCAASGIIFDDNTLGWYRQAPGKERELVAAISSSGGSTYYADSVKGRFSISRDNAKNTVYLQMNSLKPEDTAVYYCAAAVYYTYPYIVYRNYPEFDYWGQGTQVTVSS | low polyreactivity
QVQLVESGGGLDQAGGSLRLSCAASGFIFDYYAMGWYRQPPWKERELVAAITSGDSTNYADSVKGRFTISRDNAKNTVYLQMNSLKPEDTAVYYCATRFGDRTVSYDSWGQGTQVTVSS | low polyreactivity
QVQLEESGGGLVQAGGSLRLSCAAYGSTFSYAMGWYRQAPGKERELVAAITIGGRTSYADSVKGRFTISRDNAKNTVYLQMSSLKPEDTAVYYCAADDLPGMDYWGQGTQVTVSS | low polyreactivity
QVQLVESGGGLVQAGGSLRLSCAASGFTFHNNVMGWYRQAPGKERELVATISKSGGSTYYADSVKGRFTISRDNAKNTVYLQMNSLKPEDTAVYYCARRYRDYGRYGYWGQGTQVTVSS | high polyreactivity
QVQLVESGGGLVQAGGSLRLSCAASGRTFYKYGMGWYRQAPGKERELVARINSNGGSTYYADSVKGRFTISRDNAKNTVYLQMNSLKPEDTAVYYCAKRGSYRTKPASEYDSWGQGTQVTVSS | low polyreactivity
QVQLVESGGGLVQAGGSLRLSCAASGRTFAGNAMGWYRQAPGKERELVAAISQGGGSTYYADSVKGRFTFSRDNATNSVYLQMNRLNPDDTAVYYCAAEIPRRWASFATLWYDYWGQGTQVTVSS | low polyreactivity
QVQLVESGGGLVQAGGSLRLSCAASGRNFKYYTMGWYRQAPGKETELVAAISSGGRTKYADSVKGRFTISRDNAKNTVYLQMNSLKPEDTAVYYCNAGYPYPFYRSSQTGGYDYWGQGTQVTVSS | high polyreactivity
QVQLVESGGGLVQAGGSLRLSCAASGIIFRYYAMGWYRQAPGKERELVARITSRAGRTYYADSVKGRFTISRDYAKYTVYLQMNSLKPEDTAVYYCAARLYGRYGYWGQGTQVTVSS | high polyreactivity
QVQLVESGGGLVQAGGSLRLSCAASGLTFYSNAMGWYIQAPGKERELVASISKRGATTYYADSVKGRFTISRDIAKYTVYLQMNSQKAEDTAVYYCAAEYLRNQELGYQGVAILYVFWGQGTQVTVSS | low polyreactivity
QVQLVESGGGLVQAGGSLRLSCAASGSTFQHYAMGWYRQAPGKERELVAAITNTGGSTYYADSVKGRFTISRDNAKNTVDLQMNSLKPEDTAVYYCATVGRRYGYPGDYWGQGTQVTVSS | low polyreactivity
QVQLVESGGGLVQAGGSLRLSCAASGLIFPWTYAMGWYRQAPGKEREFVAAITSSDGSTYYADSVKGRFTISRDNAKNTVYLQMNSLKPEDTAVYYCAAVGWDYDWDYYYWGQGTQVTVSS | high polyreactivity
QVQLVESGGGLVHAGGSLRLSCSASRFIFDKNSMGWYIQAPGKERELVAAISYGDGRTYYADSVKGRFTISRDNAKNTVYLHMNSLKPEDTEVYYCNTDAKRYIRIYWGQGTQVTVSS | high polyreactivity
QVQLVESGGGLVQAGGSLRLSCAASGFIFPWYAMGWYRQAPGKERELVAIISWDTGSTYYADSVKGRFTISRDNAKNTVYLQMNSLKPEDTAVYYCAAQQPYAGLYYWGQGTQVTVSS | low polyreactivity
QVQLVESGGGLVQAGGSLRLSCAASGRTFGLYAMGWYRQAPGKERELVAAIDQSTGSTYYADSVKGRFTISRDNSKNTVYLQMNSLKQEDTAVYYCAAEEASTVRYYWYDYWGLGTQVTVSS | high polyreactivity
